Assay results: patent publication US20260092179A1, “GENETICALLY MODIFIED HOST CELLS PRODUCING VIOLACEIN, ANALOGUES, AND DERIVATIVES THEREOF” (OCTARINE BIO APS, priority 2022, published 2026)

What was measured:
[1] = In vitro glycosylation of violacein by purified UGT enzymes (% conversion); assay type: biochemical; settings: for Product % production: Di-glucoside / Product % production: Mono-glucoside / Product % production: Penta-glucoside / Product % production: Tetra-glucoside / Product % production: Total conversion / Product % production: Tri-glucoside: 350 μM violacein, 24 h incubation at 30° c.
Description: (§1) Glycosyltransferase (UGT) enzymes were produced and purified as follows. 5 mL of 2× concentrated LB medium+appropriate antibiotic (50 μg/mL) was inoculated with E. coli XJb (DE3) strains expressing a plasmid of interest and incubated overnight at 30° C. with shaking. The following day, 50 ml TB medium+antibiotic in 250 ml baffled flasks was inoculated with 0.5 mL overnight cell culture and incubated for 3.5 hrs at 30° C. The cell cultures were then induced with 3 mM arabinose, 0.1 mM IPTG and Incubated for 24 h at 25° C., with shaking. The following day, the cells were collected by centrifugation at 6500×g for 10 mins at 4° C. Cells were resuspended in 5 mL ice-cold protein extraction buffer (50 mM Tris-HCl pH7.4+1 mM phenylmethanesulfonyl fluoride+1 cOmplete™, mini, EDTA-free Protease Inhibitor Cocktail tablet (Roche). The resuspended material was transferred to five 1.5 mL eppendorf tubes and kept at −80° C. for at least 15 mins. The tubes were then thawed at room temperature, as the tubes were thawing the following reagents were added; 2.6 mM MgCl2, 1 mM CaCl2, 300 U/mL DNase solution (DENARASE®, C-lecta) and 0.2 mg/mL lysozyme (Sigma) dissolved in MilliQwater. Tubes were gently inverted to mix then were incubated for 10-15 mins at 37° C. […] of 4× Binding buffer was then added to the tubes (to final concentration of 50 mM Tris-HCl pH7.4, 10 mM imidazole, 500 mM NaCl and the pH adjusted to 7.4 with HCl). The mix was centrifuged at 10000×g for 30 mins at 4° C., the supernatant transferred to a fresh eppendorf tubes and centrifuged again to remove any remaining cellular debris at 10000×g for 30 minutes at 4° C. While the enzyme prep was centrifuging, HisPur 0.2 ml spin column (Thermo Scientific) are prepared as instructed by manufacturer. HisPur column was washed with MilliQ water and equilibrated with two resin-bed volumes of 1×his-binding buffer two times. HisPur column was centrifuged at 700×g for 2 minutes to remove buffer. 600 μL of collected supernatant from the centrifuged enzyme preparation was transferred to the HisPur column and then incubated at 4° C. with gentle shaking by inversion for 30 minutes. After 30 minutes, the unbound protein was removed by centrifugation 700×g for 2 min. The remaining 600 μL of collected supernatant from the centrifuged enzyme preparation was loaded to the HisPur column and incubated again at 4° C. with shaking. Unspecific binding of other proteins was removed by washing twice with 1× binding buffer (50 mM Tris-HCl, 0.5M NaCl, 10 mM Imidazole, pH 7.4). Enzyme was resuspended in 200 μl elution buffer for 2 minutes before elution by centrifugation (700×g for 2 minutes at 4° C.). Enzymes were used immediately in in vitro enzyme assays or stored at −20° C. in 50% glycerol until needed.
(§2) For in vitro studies of glycosyl transferase performance in glycosylating violacein and violacein derivatives, purified glycosyl transferases were prepared as described in Example 4 and in vitro enzyme assays run as described below in Table 19.
(§3) The reaction mixture was scaled up or down as required. The reaction mixture was incubated without shaking at 30° C. for 24 hours. Extraction and analysis were performed as described in Examples 3 and 5. To confirm the identity of the produced glycosides LC-MS/QTOF was used as described above to confirm the expected mass and fragmentation pattern of each detected molecule. Quantification of violacein glycoside or other violacein derivative glycoside production was done by comparing the peak area of the substrate and the produced glycoside with authentic analytical standards (where available), where a standard was unavailable, quantification was achieved by comparing with an authentic analytical standard of the substrate. % Conversion of a substrate to a glycoside by specific Glycosyl transferases was calculated by measuring the decrease in substrate and increase in product after 24 h incubation. […]

[2] = In vitro glycosylation of proviolacein by purified UGT enzymes (% conversion); assay type: biochemical; settings: 350 μM proviolacein, 24 h incubation at 30° c.
Description: as §1, §2, §3

B1: Bs109A1: glycosyltransferase from Bacillus subtilis (SEQ ID NO: 70) (protein, listed as Bacillus subtilis)
chain: MKKHHISMINIPAYGHVNPTLALVEKLCEKGHRVTYATTEEFAPAVQQAGGEALIYHTSLNIDPKQIREMMEKNDATLSLLKESLSILPQLEELYKDDQPDLIIYDFVALAGKLFADKLNVPVIKLCSSYAQNESFQLGNEDMLKKIKEAEAEFKAYLEQEQLPAVSFEQLAVPEALNIVFMPKSFQIQHETFDDRFCFVGPSLGKRTEQESLLIDKGDRPLMLISLGTAFNAWPEFYKMCIDAFRDSSWQVIMSVGKSIDPESLDDTPANFTIRQSVPQLEVLAKADLFISHGGMNSTMEAMNAGVPLVVIPQMYEQELTAKRVDELGLGVYLQREEVTVSKLQEAVQAVSGDQELLSRVKSMQKDVKEAGGAERAAAEIEAFMKKSAVPQ
- Product % production: Di-glucoside [1]: 10.57%
- Product % production: Mono-glucoside [1]: 11.05%
- Product % production: Penta-glucoside [1]: 11.46%
- Product % production: Tetra-glucoside [1]: 14.10%
- Product % production: Total conversion [1]: 62.47%
- Product % production: Tri-glucoside [1]: 15.29%
- Product % production: Di-glucoside [2]: 1.45%
- Product % production: Mono-glucoside [2]: 2.45%
- Product % production: Penta-glucoside [2]: 2.11%
- Product % production: Tetra-glucoside [2]: 1.98%
- Product % production: Total conversion [2]: 10.11%
- Product % production: Tri-glucoside [2]: 2.12%

B2: Pt73Y: glycosyltransferase enzyme from Populus trichocarpa (SEQ ID NO. 64, 66) (protein, listed as Populus trichocarpa)
chain: MGSLGHQLHIFFLPFFAHGHMIPSVDMAKLFASRGIKTTIITTPLNAPFFSKTIQKTKELGFDINILTIKFPAAEAGLPEGYENTDAFIFSENAREMTIKFIKATTFLQAPFEKVLQECHPDCIVADVFFPWATDAAAKFGIPRLVFHGTSNFALSASECVRLYEPHKKVSSDSEPFVVPDLPGDIKLTKKQLPDDVRENVENDFSKFLKASKEAELRSFGVVVNSFYELEPAYADYYKKVLGRRAWNVGPVSLCNRDTEDKAGRGKETSIDHHECLKWLDSKKPNSVVYICFGSTTNFSDSQLKEIAAGLEASGQQFIWVVRRNKKGQEDKEDWLPEGFEERMEGVGLIIRGWAPQVLILDHEAIGAFVTHCGWNSTLEGITAGKPMVTWPIFAEQFYNEKLVTDVLKTGVGVGVKEWFRVHGDHVKSEAVEKTITQIMVGEEAEEMRSRAKKLGETARKAVEEGGSSYSDFNALIEELRWRRP
- Product % production: Di-glucoside [1]: 8.95%
- Product % production: Mono-glucoside [1]: 8.69%
- Product % production: Penta-glucoside [1]: 10.98%
- Product % production: Tetra-glucoside [1]: 10.31%
- Product % production: Total conversion [1]: 54.41%
- Product % production: Tri-glucoside [1]: 15.47%
- reduction in violacein concentration compared to the no-enzyme control ([1]; 24 h incubation at 30° C., HPLC): 75%
- Product % production: Di-glucoside [2]: 0.15%
- Product % production: Mono-glucoside [2]: 0.12%
- Product % production: Penta-glucoside [2]: 0.78%
- Product % production: Tetra-glucoside [2]: 1.22%
- Product % production: Total conversion [2]: 3.4%
- Product % production: Tri-glucoside [2]: 1.13%

B3: Bs109_1: glycosyltransferase from Bacillus subtilis (SEQ ID NO: 68) (protein, listed as Bacillus subtilis)
chain: MKKYHISMINIPAYGHVNPTLALVEKLCEKGHRVTYATTEEFAPAVQQAGGEALLYHTSLNIDPKQIREMMEKNDAPLSLLKESLSILPQLEELYKDDQPDLIIYDFVALAGKLFAEKLNVPVIKLCSSYAQNESFQLGNEDMLKKIREAEAEFKAYLEQEKLPAVSFEQLAVPEALNIVFMPKSFQIQHETFDDRFCFVGPSLGERKEKESLLIEKDDRPLMLISLGTAFNAWPEFYKMCIKAFRDSSWQVIMSVGKAIDPESLEDIPANFTIRQSVPQLEVLEKADLFISHGGMNSTMEAMNAGVPLVVIPQMYEQELTANRVDELGLGVYLPKEEVTVSSLQEAVQAVSSDQELLSRVKNMQKDVKEAGGAERAAAEIEAFMKKSAVPQ
- Product % production: Mono-glucoside [1]: 9.02%
- Product % production: Tetra-glucoside [1]: 11.12%
- Product % production: Total conversion [1]: 30.93%
- Product % production: Tri-glucoside [1]: 10.80%
- Product % production: Mono-glucoside [2]: 2.12%
- Product % production: Tetra-glucoside [2]: 3.34%
- Product % production: Total conversion [2]: 6.69%
- Product % production: Tri-glucoside [2]: 1.23%
